Data on 2 molecules can be found in paper PMC5821389, “Fluorescent single-stranded DNA-binding protein from Plasmodium falciparum as a biosensor for single-stranded DNA”.

The Kd is the equilibrium constant for the complex coming apart.

In series [1] the target is T1, DCC-PfSSB (wild-type PfSSB labeled with IDCC) (Plasmodium falciparum, UniProt Q8I415 77-284). Description: fluorescence titration; high salt, 250 nM protein; two dT35 per tetramer; kon 109 uM-1s-1; High salt buffer (composition not in material) or low salt buffer (20 mM NaCl); pH and temperature not in material. The following applies: protein: recombinant; tags: DCC (diethylaminocoumarin) at C93; chain copies: 4; single strand; two copies per tetramer at saturation.

The target in series [2] is T2, PfSSB wild type, unlabeled (Plasmodium falciparum, UniProt Q8I415 77-284). Description: competition; calculated from DCC-PfSSB Kd and 25-fold ratio; high salt; High salt buffer (composition not in material) or low salt buffer (20 mM NaCl); pH and temperature not in material. The conditions noted are these: protein: recombinant; chain copies: 4; single strand.
Series [3] deals with T1, DCC-PfSSB (wild-type PfSSB labeled with …). Description: fluorescence titration; high salt, 125 pM DCC-PfSSB; single titration; High salt buffer (composition not in material) or low salt buffer (20 mM NaCl); pH and temperature not in material. The following applies: protein: recombinant; tags: DCC (diethylaminocoumarin) at C93; chain copies: 4; single strand.
The target in series [4] is PfSSB C93A W166C, 5-IATR labeled (Plasmodium falciparum, UniProt Q8I415 77-284, C93A;W166C). Description: fluorescence change; high salt; High salt buffer (composition not in material) or low salt buffer (20 mM NaCl); pH and temperature not in material. The conditions noted are these: protein: recombinant; tags: tetramethylrhodamine (5-IATR) at C166; chain copies: 4; single strand.

Series [5] concerns the target PfSSB Y156R, IDCC labeled (Plasmodium falciparum, UniProt Q8I415 77-284, Y156R). The description is as above. The conditions noted are these: protein: recombinant; tags: DCC at C93; chain copies: 4; single strand.
In series [6] the target is PfSSB C93A G102C, IDCC labeled (Plasmodium falciparum, UniProt Q8I415 77-284, C93A;G102C). The description is as above. The conditions noted are these: protein: recombinant; tags: DCC at C102; chain copies: 4; single strand.
Series [7] addresses T1, DCC-PfSSB (wild-type PfSSB labeled with …). The series is described as above. The conditions noted are these: protein: recombinant; tags: DCC (diethylaminocoumarin) at C93; chain copies: 4; single strand.
Series [8] concerns the target PfSSB C93A G103C, IDCC labeled (Plasmodium falciparum, UniProt Q8I415 77-284, C93A;G103C). The description is as above. The following applies: protein: recombinant; tags: DCC at C103; chain copies: 4; single strand.
The target of series [9] is PfSSB C93A G103C, 6-IATR labeled (Plasmodium falciparum, UniProt Q8I415 77-284, C93A;G103C). Described as above. The conditions noted are these: protein: recombinant; tags: tetramethylrhodamine (6-IATR) at C103; chain copies: 4; single strand.
Series [10] deals with PfSSB wild type, 5-IATR labeled (Plasmodium falciparum, UniProt Q8I415 77-284). Described as above. The following applies: protein: recombinant; tags: tetramethylrhodamine (5-IATR) at C93; chain copies: 4; single strand.
For series [11], the target named is T1, DCC-PfSSB (wild-type PfSSB labeled with …). In words: stopped-flow kinetics (koff 0.014 s-1 / kon 199 uM-1s-1); low salt, 20 mM NaCl; koff by wtSSB displacement; High salt buffer (composition not in material) or low salt buffer (20 mM NaCl); pH and temperature not in material. The conditions noted are these: protein: recombinant; tags: DCC (diethylaminocoumarin) at C93; chain copies: 4; single strand.

Series [12] shares this target. In words: stopped-flow kinetics (koff/kon); high salt (salt inferred); High salt buffer (composition not in material) or low salt buffer (20 mM NaCl); pH and temperature not in material. The following applies: protein: recombinant; tags: DCC (diethylaminocoumarin) at C93; chain copies: 4; single strand.
Series [13] concerns the target T2, PfSSB wild type, unlabeled. Description: competition; high salt, equimolar labeled and unlabeled PfSSB; High salt buffer (composition not in material) or low salt buffer (20 mM NaCl); pH and temperature not in material. The conditions noted are these: protein: recombinant; chain copies: 4; single strand.

B1: dT35 (ssDNA)
DNA: TTTTTTTTTTTTTTTTTTTTTTTTTTTTTTTTTTT
As for B1, the binding result in series [1] is given as “binds”.

B2: dT70 (ssDNA)
DNA: TTTTTTTTTTTTTTTTTTTTTTTTTTTTTTTTTTTTTTTTTTTTTTTTTTTTTTTTTTTTTTTTTTTTTT
In the case of B2, the dissociation constant Kd was < 0.2 pM in series [2], 1.2 ± 0.5 pM in [3], 0.07 nM in series [11] and < 4.6 pM in [12]. Moreover, the binding signal in [4] was 12.8 ± 0.5 fluorescence ratio +/- dT70; in series [5], 12.3 ± 0.07 fluorescence ratio +/- dT70; in [6] it was 1.8 ± 0.09 fluorescence ratio +/- dT70; in series [7], 20.1 ± 0.1 fluorescence ratio +/- dT70; in [8], 3.5 ± 0.08 fluorescence ratio +/- dT70; in series [9] it was 3.5 ± 0.4 fluorescence ratio +/- dT70. Besides, the binding signal in series [10] was 9.1 ± 0.2 fluorescence ratio +/- dT70; in series [13], > 25 fold tighter than DCC-PfSSB.
